Assay results from patent USRE47150 (Bayer, dated 2018).
Changes are numbered by the printed parent chain. Names and notes keep the numbering of the source.

T1: human tissue factor pathway inhibitor (TFPI) (human, UniProt P10646 29-304, limits assumed)
T1 construct: bought; also called hTFPI; human TFPI
T1 sequence (looked up): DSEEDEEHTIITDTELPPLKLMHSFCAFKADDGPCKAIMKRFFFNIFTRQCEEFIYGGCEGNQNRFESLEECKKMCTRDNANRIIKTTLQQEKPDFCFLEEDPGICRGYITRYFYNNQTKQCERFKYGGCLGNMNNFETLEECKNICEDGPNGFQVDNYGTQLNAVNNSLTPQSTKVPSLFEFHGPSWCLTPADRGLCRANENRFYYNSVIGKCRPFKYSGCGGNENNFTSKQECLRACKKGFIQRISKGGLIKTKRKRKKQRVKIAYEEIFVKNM

T2: mouse tissue factor pathway inhibitor (TFPI) (mouse, UniProt O54819 29-289, limits assumed)
T2 construct: bought; also called mTFPI; murine TFPI
T2 sequence (looked up): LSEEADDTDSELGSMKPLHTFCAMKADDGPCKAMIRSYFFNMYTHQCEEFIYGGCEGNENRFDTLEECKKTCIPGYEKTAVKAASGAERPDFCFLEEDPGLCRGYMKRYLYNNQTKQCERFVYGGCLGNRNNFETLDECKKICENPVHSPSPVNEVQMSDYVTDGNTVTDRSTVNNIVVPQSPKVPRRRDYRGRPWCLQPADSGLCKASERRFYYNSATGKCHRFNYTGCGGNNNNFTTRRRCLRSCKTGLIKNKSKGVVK

B1: 2A8 HC G33A+S35D+S55R+K99L/LC Y48F+N51V+D91W (Fab, V domains shown)
VH: QVQLVESGGGLVQPGGSLRLSCAASGFTFRSYAMDWVRQAPGKGLEWVSSIRGSRSSTYYADSVKGRFTISRDNSKNTLYLQMNSLRAEDTAVYYCARLYRYWFDYWGQGTLVTVSS
VL: DIELTQPPSVSVAPGQTARISCSGDNLRNYYAHWYQQKPGQAPVVVIFYDVNRPSGIPERFSGSNSGNTATLTISGTQAEDEADYYCQSWWDGVPVFGGGTKLTVLG
B2: 2A8 HC S31V+K99V/LC N51V+D91W (Fab, V domains shown)
VH: B1 VH with S31V, A33G, D35S, R55S, L99V
VL: B1 VL with F48Y
B3: 2A8 HC G33P+S35D+S54F+K99L/LC Y48F+N52G (Fab, V domains shown)
VH: B1 VH with A33P, S54F, R55S
VL: B1 VL with V51N, N52G, W91D
B4: 2A8 HC Q1E+R30S+S35D+S55G+S56G+K99L/LC Y48F+D91L+V96W (Fab, V domains shown)
VH: B1 VH with Q1E, R30S, A33G, R55G, S56G
VL: B1 VL with V51N, W91L, V96W
B5: 2A8 HC S31V+I51D+S55R/LC Y48F+N51V+D91L (Fab, V domains shown)
VH: B1 VH with S31V, A33G, D35S, I51D, L99K
VL: B1 VL with W91L
B6: 2A8 HC S31V+S35L+I51D+S54F+K99V/LC N51V+D91K (Fab, V domains shown)
VH: B1 VH with S31V, A33G, D35L, I51D, S54F, R55S, L99V
VL: B1 VL with F48Y, W91K
B7: 2A8 HC Q1E+R30S+S35D+S55R+S56G+K99L/LC Y48F+N51V+D91W (Fab, V domains shown)
VH: B1 VH with Q1E, R30S, A33G, S56G
VL: B1 VL
B8: 2A8 HC I51D+S54F+K99L/LC D91W (Fab, V domains shown)
VH: B1 VH with A33G, D35S, I51D, S54F, R55S
VL: B1 VL with F48Y, V51N
B9: 2A8 HC Q1E+S35D+S55R+K99L/LC Y48F+N51V+D91W (Fab, V domains shown)
VH: B1 VH with Q1E, A33G
VL: B1 VL
B10: 2A8 HC S31V+I51D+S54F+K99V/LC Y48F+N51V (Fab, V domains shown)
VH: B1 VH with S31V, A33G, D35S, I51D, S54F, R55S, L99V
VL: B1 VL with W91D
B11: 2A8 HC Q1E+S31V+S50A+I51D+S55R+S56G+K99V/LC Y48F+D91L+V96W (Fab, V domains shown)
VH: B1 VH with Q1E, S31V, A33G, D35S, S50A, I51D, S56G, L99V
VL: B1 VL with V51N, W91L, V96W
B12: 2A8 HC S31V+S35D/LC Y48F+N51V (Fab, V domains shown)
VH: B1 VH with S31V, A33G, R55S, L99K
VL: B1 VL with W91D
B13: 2A8 HC S31V+S35D+I51D+K99V/LC Y48F+D91K (Fab, V domains shown)
VH: B1 VH with S31V, A33G, I51D, R55S, L99V
VL: B1 VL with V51N, W91K
B14: 2A8 HC R30S+S31V+I51D+S55R+K99V/LC Y48F+D91L+V96W (Fab, V domains shown)
VH: B1 VH with R30S, S31V, A33G, D35S, I51D, L99V
VL: B1 VL with V51N, W91L, V96W
B15: 2A8 HC R30S+S35D+S55R+K99L/LC Y48F+N51V+D91W (Fab, V domains shown)
VH: B1 VH with R30S, A33G
VL: B1 VL
B16: 2A8 HC S31V+I51D+S55R+K99L/LC Y48F+N52G+D91L+V96W (Fab, V domains shown)
VH: B1 VH with S31V, A33G, D35S, I51D
VL: B1 VL with V51N, N52G, W91L, V96W
B17: 2A8 HC M34K+S35D+S55R+K99L/LC Y48F+N51V+D91W (Fab, V domains shown)
VH: B1 VH with A33G, M34K
VL: B1 VL
B18: 2A8 HC S31V+G33P+I51D+S54F+K99V/LC Y48F+N51V+D91W (Fab, V domains shown)
VH: B1 VH with S31V, A33P, D35S, I51D, S54F, R55S, L99V
VL: B1 VL
B19: 2A8 HC S31V+S35D+S54F/LC Y48F+D91L+V96W (Fab, V domains shown)
VH: B1 VH with S31V, A33G, S54F, R55S, L99K
VL: B1 VL with V51N, W91L, V96W
B20: 2A8 HC G33P+I51D+S54F/LC Y48F+N51V+V96W (Fab, V domains shown)
VH: B1 VH with A33P, D35S, I51D, S54F, R55S, L99K
VL: B1 VL with W91D, V96W
B21: 2A8 HC S31V+S35D+S55R/LC Y48F+N51V+D91L+V96W (Fab, V domains shown)
VH: B1 VH with S31V, A33G, L99K
VL: B1 VL with W91L, V96W
B22: 2A8 HC S31V+G33P+S35D/LC Y48F+N51V+D91L (Fab, V domains shown)
VH: B1 VH with S31V, A33P, R55S, L99K
VL: B1 VL with W91L
B23: 2A8 HC S31V+I51D+S55R+S56G+K99V/LC Y48F+D91L+V96W (Fab, V domains shown)
VH: B1 VH with S31V, A33G, D35S, I51D, S56G, L99V
VL: B1 VL with V51N, W91L, V96W
B24: 2A8 HC M34I+S35D+S55R+K99L/LC Y48F+N51V+D91W (Fab, V domains shown)
VH: B1 VH with A33G, M34I
VL: B1 VL
B25: 2A8 HC S31V+G33P+S35D/LC Y48F+D91L+V96W (Fab, V domains shown)
VH: B1 VH with S31V, A33P, R55S, L99K
VL: B1 VL with V51N, W91L, V96W
B26: 2A8 HC S31V+I51D+R52S+S55R+K99V/LC Y48F+D91L+V96W (Fab, V domains shown)
VH: B1 VH with S31V, A33G, D35S, I51D, R52S, L99V
VL: B1 VL with V51N, W91L, V96W
B27: 2A8 HC S31V+I51E+S55R+K99V/LC Y48F+D91L+V96W (Fab, V domains shown)
VH: B1 VH with S31V, A33G, D35S, I51E, L99V
VL: B1 VL with V51N, W91L, V96W
B28: 2A8 HC S31V+G33A+I51D+S55R+K99V/LC Y48F+D91L+V96W (Fab, V domains shown)
VH: B1 VH with S31V, D35S, I51D, L99V
VL: B1 VL with V51N, W91L, V96W
B29: 4B7 HC N32D+I53T+D62R+Y112D/LC S32R+D33F+N35I+D97T (Fab, V domains shown)
VH: QVQLQQSGPGLVKPSQTLSLTCAISGDSVSSDSAAWSWIRQSPGRGLEWLGITYKRSKWYNRYAVSVKSRITINPDTSKNQFSLQLNSVTPEDTAVYYCARWHSDKHWGFDDWGQGTLVTVSS
VL: DIVMTQSPLSLPVTPGEPASISCRSSQSLVFRFGITYLNWYLQKPGQSPQLLIYKGSNRASGVPDRFSGSGSGTDFTLKISRVEAEDVGVYYCQQYTSYPLTFGQGTKVEIKR
B30: 4B7 HC N32D+S37N+D62R+Y112D/LC S32R+D33F+N35I+D97T (Fab, V domains shown)
VH: B29 VH with S37N, T53I
VL: B29 VL
B31: 4B7 HC N32D+K55Y+D62R+Y112D/LC S32R+D33F+N35I+D97T (Fab, V domains shown)
VH: B29 VH with T53I, K55Y
VL: B29 VL
B32: 4B7 HC N32D+K55Y+D62Q+Y112D/LC F31I+D33F+N35I (Fab, V domains shown)
VH: B29 VH with T53I, K55Y, R62Q
VL: B29 VL with F31I, R32S, T97D
B33: 4B7 HC Q1E+N32D+G44S+K55Y+D62R+Y112D/LC V30L+S32R+N35I+T36N (Fab, V domains shown)
VH: B29 VH with Q1E, G44S, T53I, K55Y
VL: B29 VL with V30L, F33D, T36N, T97D
B34: 4B7 HC Q1E+N32D+G44S+K55Y+D62R+Y112D/LC S32R+D33F+N35I+D97T (Fab, V domains shown)
VH: B29 VH with Q1E, G44S, T53I, K55Y
VL: B29 VL
B35: 4B7 HC Q1E+N32D+D62R+Y112D/LC S32R+D33F+N35I+D97T (Fab, V domains shown)
VH: B29 VH with Q1E, T53I
VL: B29 VL
B36: 4B7 HC Q1E+N32D+G44S+K55Y+D62R+Y112D/LC V30L+S32R+D33F+N35I+T36N+D97T (Fab, V domains shown)
VH: B29 VH with Q1E, G44S, T53I, K55Y
VL: B29 VL with V30L, T36N

biological target: T1, human tissue factor pathway inhibitor …; test: competitive ELISA

| variant/HC_K99L | Binder |
| --- | --- |
| 16 ratio | B1 |
| 6.7 ratio | B2 |
| 6.2 ratio | B3 |
| 13.6 ratio | B4 |
| 8.4 ratio | B5 |
| 8.6 ratio | B6 |
| 11.9 ratio | B7 |
| 6.2 ratio | B8 |
| 20.9 ratio | B9 |
| 8.1 ratio | B10 |
| 12.1 ratio | B11 |
| 7.5 ratio | B12 |
| 0.6 ratio | B13 |
| 13.5 ratio | B14 |
| 17.9 ratio | B15 |
| 0.4 ratio | B16 |
| 11.2 ratio | B17 |
| 6.6 ratio | B18 |
| 5.4 ratio | B19 |
| 0.6 ratio | B20 |
| 8.7 ratio | B21 |
| 12.2 ratio | B22 |
| 16.2 ratio | B23 |
| 19.6 ratio | B24 |
| 22.5 ratio | B25 |
| 11.7 ratio | B26 |
| 9.2 ratio | B27 |
| 9 ratio | B28 |

biological target: T2, mouse tissue factor pathway inhibitor …; test: competitive ELISA

| variant/HC_K99L | Binder |
| --- | --- |
| 14.7 ratio | B1 |
| 5.6 ratio | B2 |
| 2.3 ratio | B3 |
| 10.6 ratio | B4 |
| 6.5 ratio | B5 |
| 8.2 ratio | B6 |
| 9.3 ratio | B7 |
| 5.3 ratio | B8 |
| 20.3 ratio | B9 |
| 2.2 ratio | B10 |
| 7.7 ratio | B11 |
| 7.2 ratio | B12 |
| 0.1 ratio | B13 |
| 6.5 ratio | B14 |
| 19.1 ratio | B15 |
| 0.1 ratio | B16 |
| 11.6 ratio | B17 |
| 5.9 ratio | B18 |
| 4.2 ratio | B19 |
| 0.4 ratio | B20 |
| 8.2 ratio | B21 |
| 11.7 ratio | B22 |
| 12.1 ratio | B23 |
| 18.1 ratio | B24 |
| 5.9 ratio | B25 |
| 7.9 ratio | B26 |
| 7 ratio | B27 |
| 4.7 ratio | B28 |

biological target: T1, human tissue factor pathway inhibitor …; test: competitive ELISA; remark: another data set of the same source

| variant/HC_D62R | Binder |
| --- | --- |
| 19.6 ratio | B29 |
| 1.9 ratio | B30 |
| 25.6 ratio | B31 |
| 25.6 ratio | B32 |
| 23 ratio | B33 |
| 26.3 ratio | B34 |
| 26.7 ratio | B35 |
| 20.4 ratio | B36 |

biological target: T2, mouse tissue factor pathway inhibitor …; test: competitive ELISA; remark: another data set of the same source

| variant/HC_D62R | binding result | Binder |
| --- | --- | --- |
| 8.3 ratio |  | B29 |
|  | no binding | B30 |
| 42.8 ratio |  | B31 |
| 26.2 ratio |  | B32 |
| 9.9 ratio |  | B33 |
| 45.1 ratio |  | B34 |
| 39.8 ratio |  | B35 |
| 29.4 ratio |  | B36 |
